Target: Lys-Nle peptide
Test: SPR; Lys-Nle peptide immobilised via its terminal thiol group on a CM5 chip (1123.9 RU); BMP-2 flown at increasing concentrations in PBS-T at 50 µL/min; regeneration with Gly-HCl pH 1.5; nonfunctionalized reference channel; Langmuir fit (BIAevaluation)

- Kd: 36.6 nM
B1: bone morphogenetic protein-2 (BMP-2) (ligand)
chain: QAKHKQRKRLKSSCKRHPLYVDFSDVGWNDWIVAPPGYHAFYCHGECPFPLADHLNSTNHAIVQTLVNSVNSKIPKACCVPTELSAISMLYLDENEKVVLKNYQDMVVEGCGCR
